± gives the uncertainty stated by the source.
B1: WW domain-binding protein 4, residues 8 to 43; numbered along this chain, O75554 (parent)
chain: QPKKFCDYCKCWIADNRPSVEFHERGKNHKENVAKR
B2: Gamma-crystallin C, residues 4 to 79; numbered along this chain, P07315 (parent)
chain: ITFYEDRAFQGRSYETTTDCPNLQPYFSRCNSIRVESGCWMLYERPNYQGQQYLLRRGEYPDYQQWMGLSDSIRSC

Variants of: B1
Assay: abundance fitness (aPCA) (normalised: wild type 0, dead -1); higher = more abundant; growth selection in yeast, the domain comes from the species named
Conditions: Homo sapiens

Abundance fitness of substitutions, site by site:
Q1: G -0.548 ± 0.099; L -0.654 ± 0.081; W -1.47 ± 0.32; S -0.651 ± 0.11; M -0.242 ± 0.075; Y -0.422 ± 0.41; R -0.979 ± 0.094; E -0.941 ± 0.12; I 0.404 ± 0.17; K -0.879 ± 0.15; H -0.275 ± 0.089; V -0.257 ± 0.094; T -0.509 ± 0.12; A -0.931 ± 0.23; C -1.36 ± 0.41
K10: V -0.551 ± 0.088; E -0.134 ± 0.097; A -0.126 ± 0.058; Q -0.146 ± 0.1; F -0.409 ± 0.21; N -0.149 ± 0.16; P -0.482 ± 0.23; M -0.34 ± 0.25; W -0.748 ± 0.091; S -0.151 ± 0.079; C -0.325 ± 0.092; Y 0.002 ± 0.33; D 0.061 ± 0.18; R -0.088 ± 0.064
F5: E -0.356 ± 0.072; A -0.261 ± 0.063; K -0.502 ± 0.09; G -0.786 ± 0.066; R -0.465 ± 0.068; Y -0.087 ± 0.17; V -0.565 ± 0.083; P -0.551 ± 0.1; N -0.174 ± 0.1; W -1.06 ± 0.087; I -0.379 ± 0.12; Q -0.328 ± 0.084; D -0.533 ± 0.13; S -0.468 ± 0.087; M -0.085 ± 0.18
A14: Q -0.264 ± 0.28; G -0.286 ± 0.061; M -0.602 ± 0.14; D -0.2 ± 0.1; E -0.048 ± 0.098; R -0.381 ± 0.07; C -0.169 ± 0.1; V -0.39 ± 0.077; S -0.343 ± 0.082; K -0.251 ± 0.091; P -0.19 ± 0.082; W -0.338 ± 0.076; L -0.558 ± 0.074
R17: M 0.176 ± 0.085; L -0.015 ± 0.073; C 0.118 ± 0.099; A 0.036 ± 0.063; N -0.019 ± 0.11; Q -0.008 ± 0.12; G 0.005 ± 0.061; S 0.052 ± 0.073; V 0.008 ± 0.067; H -0.148 ± 0.14; W -0.389 ± 0.074; K -0.098 ± 0.15; T -0.03 ± 0.11; Y -0.235 ± 0.11; P 0.253 ± 0.078; E -0.011 ± 0.067; D 0.068 ± 0.096
N16: G 0.151 ± 0.055; I 0.321 ± 0.19; Q -0.073 ± 0.094; D -0.233 ± 0.11; S -0.177 ± 0.082; Y -0.06 ± 0.14; A 0.135 ± 0.064; W -0.268 ± 0.065; M 0.024 ± 0.084; L -0.175 ± 0.065; F -0.143 ± 0.36; T 0.185 ± 0.067; E 0.027 ± 0.082; R -0.141 ± 0.061; P 0.018 ± 0.078; H -0.105 ± 0.091; V -0.14 ± 0.057; K 0.102 ± 0.12
C9: M -1.23 ± 0.34; E -0.603 ± 0.098; Q -0.701 ± 0.12; K -0.983 ± 0.34; D -0.541 ± 0.11; W -1.2 ± 0.12; G -0.525 ± 0.061; T -0.635 ± 0.16; V -1.28 ± 0.14; S -0.116 ± 0.13; L -1.13 ± 0.14; A -0.787 ± 0.073
Y8: T -0.07 ± 0.084; K -0.309 ± 0.083; D 0.129 ± 0.15; E 0.048 ± 0.096; L -0.26 ± 0.1; G -0.224 ± 0.06; V -0.249 ± 0.074; S -0.448 ± 0.19; W -0.118 ± 0.079; M 0.054 ± 0.093; R -0.12 ± 0.062; C -0.269 ± 0.12; P 0.343 ± 0.096
K3: F -0.881 ± 0.29; A -0.194 ± 0.062; G -0.051 ± 0.058; V -0.279 ± 0.065; S -0.102 ± 0.07; P -0.119 ± 0.076; M 0.074 ± 0.087; R 0.013 ± 0.062; Q 0.082 ± 0.08; Y 0.045 ± 0.14; W -0.997 ± 0.1; D -0.025 ± 0.12; E 0.174 ± 0.073; H -0.569 ± 0.19; L -0.193 ± 0.066; T -0.275 ± 0.11; C -1.59 ± 0.17
K4: V -0.507 ± 0.07; F -0.177 ± 0.16; E -0.355 ± 0.08; R -0.374 ± 0.066; S -0.212 ± 0.092; T -0.022 ± 0.18; L -0.366 ± 0.072; N -0.226 ± 0.1; G -0.497 ± 0.07; W -1.03 ± 0.075; A -0.291 ± 0.063; Q -0.245 ± 0.085; C -0.453 ± 0.09; D -0.573 ± 0.15; M 0.13 ± 0.082
P2: G 0.136 ± 0.06; T 0.109 ± 0.11; D 0.365 ± 0.25; S 0.115 ± 0.075; R 0.047 ± 0.062; Y -0.176 ± 0.26; M 0.615 ± 0.2; Q 0.179 ± 0.099; I 0.015 ± 0.14; K 0.294 ± 0.16; W -0.692 ± 0.085; L 0.045 ± 0.096; C -0.839 ± 0.18; A 0.007 ± 0.075; V 0.06 ± 0.066
C6: N -0.919 ± 0.33; F -0.653 ± 0.17; V -0.756 ± 0.083; S -0.615 ± 0.077; M -0.654 ± 0.09; W -1 ± 0.13; K -0.216 ± 0.26; E -0.546 ± 0.079; T -0.521 ± 0.085; A -0.471 ± 0.07; L -0.862 ± 0.098; P -0.466 ± 0.084; G -1.07 ± 0.062; R -0.691 ± 0.071
P18: R -0.162 ± 0.059; H -0.124 ± 0.14; M -0.002 ± 0.073; K -0.175 ± 0.13; I -0.349 ± 0.12; G -0.179 ± 0.066; A -0.108 ± 0.061; L -0.236 ± 0.071; Q -0.12 ± 0.083; F -0.431 ± 0.46; N -0.177 ± 0.1; T -0.381 ± 0.14; D -0.388 ± 0.27; E -0.048 ± 0.073; C -0.113 ± 0.086; S -0.192 ± 0.086
I13: V -0.089 ± 0.12; A -0.531 ± 0.091; T -0.261 ± 0.096; Q -0.529 ± 0.085; C -0.427 ± 0.074; K -0.853 ± 0.12; N -0.308 ± 0.16; M 0.209 ± 0.082; L -0.236 ± 0.078; S -0.473 ± 0.085; G -0.449 ± 0.071; Y 0.334 ± 0.19; H -0.368 ± 0.12; E -0.226 ± 0.08; D -0.171 ± 0.18; R -0.532 ± 0.077; P -0.488 ± 0.069
D7: T 0.154 ± 0.13; Q -0.113 ± 0.097; M -0.241 ± 0.37; G -0.173 ± 0.069; V -0.6 ± 0.1; L -0.209 ± 0.12; S -0.131 ± 0.23; K -0.272 ± 0.16; E 0.007 ± 0.11; W -0.649 ± 0.12; Y -0.286 ± 0.33; P -0.529 ± 0.2
C11: G -0.059 ± 0.065; M 0.084 ± 0.14; K -0.066 ± 0.099; I 0.002 ± 0.098; F -0.417 ± 0.14; S 0.101 ± 0.075; D 0.144 ± 0.16; V 0.066 ± 0.068; H -0.335 ± 0.27; T 0.087 ± 0.17; P -0.475 ± 0.12; W -0.589 ± 0.12; Q 0.139 ± 0.09; L -0.045 ± 0.078; A 0.052 ± 0.066
D15: R -0.328 ± 0.068; V -0.313 ± 0.068; N -0.249 ± 0.29; P -0.186 ± 0.083; W -0.391 ± 0.065; Q -0.262 ± 0.27; M -0.128 ± 0.17; H -0.37 ± 0.24; T -0.075 ± 0.096; A -0.145 ± 0.07; L -0.332 ± 0.08; S -0.236 ± 0.074; F -0.235 ± 0.11; G -0.09 ± 0.055; K -0.367 ± 0.092; C -0.48 ± 0.086
W12: E -0.238 ± 0.083; L -0.087 ± 0.068; F -0.165 ± 0.24; T -0.066 ± 0.079; K -0.557 ± 0.14; I 0.139 ± 0.15; P 0.188 ± 0.22; R -0.537 ± 0.064; C -0.437 ± 0.097; S -0.261 ± 0.081; H 0.339 ± 0.3; A -0.209 ± 0.078; Q 0.077 ± 0.12; D -0.219 ± 0.079; G -0.331 ± 0.06; M 0.075 ± 0.11

Variants of: B2
Assay: as above
Conditions: Homo sapiens

Abundance fitness: each site, then its substitutions
I73: S -0.39 ± 0.084; M 0.106 ± 0.094; R -0.854 ± 0.1; T 0.053 ± 0.1; P 0.071 ± 0.081; L 0.025 ± 0.077; Y -0.207 ± 0.3; F -0.083 ± 0.12; W 0.124 ± 0.12; K -0.801 ± 0.25; H -0.693 ± 0.29; Q -0.798 ± 0.26; V 0.085 ± 0.089
C76: G 0.116 ± 0.065; Q -0.592 ± 0.15; I 0.074 ± 0.083; E -0.795 ± 0.32; T -0.002 ± 0.15; V 0.061 ± 0.073; A 0.056 ± 0.078; S 0.051 ± 0.063; W -0.545 ± 0.22; D -0.834 ± 0.13; Y -0.719 ± 0.13; M -0.192 ± 0.14; R -0.904 ± 0.25; P -0.984 ± 0.18; H -0.574 ± 0.092; F -0.539 ± 0.086
S75: K -0.59 ± 0.19; L 0.044 ± 0.068; W -0.875 ± 0.24; D -0.836 ± 0.41; M -0.675 ± 0.13; T -0.828 ± 0.17; H -0.88 ± 0.29; I -0.186 ± 0.15; F -0.979 ± 0.26; C 0.044 ± 0.12; Y -0.599 ± 0.25; G -0.069 ± 0.062; P -0.66 ± 0.12; V -0.226 ± 0.053; A -0.054 ± 0.093; Q -0.327 ± 0.21; R -0.479 ± 0.069; E -0.793 ± 0.27
R74: P -0.389 ± 0.099; N 0.107 ± 0.14; A 0.039 ± 0.05; D 0.104 ± 0.15; H -0.001 ± 0.11; E -0.021 ± 0.066; T 0.12 ± 0.082; Q -0.001 ± 0.1; W 0.119 ± 0.059; M 0.007 ± 0.082; V 0.108 ± 0.053; Y 0.105 ± 0.14; G 0.022 ± 0.044; C 0.037 ± 0.088; L 0.023 ± 0.049; I 0.02 ± 0.076; K -0.013 ± 0.12
